Assay results from US20230192839A1, “ANTIBODIES HAVING CONDITIONAL AFFINITY AND METHODS OF USE THEREOF” (PFIZER INC., priority 2017, published 2023).

Test system: human CD33
Assay: Biacore SPR binding kinetics of anti-CD33 scFv-Fc clones with or without 10 µM MTX
Conditions: for koff, kinetics toward antigen with 0 µM MTX / kon, kinetics toward antigen with 0 µM MTX / koff, kinetics toward antigen with 10 µM MTX / kon, kinetics toward antigen with 10 µM MTX / Kd: 37° C., pH 7.4; for koff, kinetics toward antigen with 0 µM MTX / kon, kinetics toward antigen with 0 µM MTX / koff, kinetics toward antigen with 10 µM MTX / kon, kinetics toward antigen with 10 µM MTX: scFv-Fc; for koff, kinetics toward antigen with 10 µM MTX / kon, kinetics toward antigen with 10 µM MTX / Kd: 10 µM MTX; for Kd: koff/kon, or estimated from binding response / limit of detection for weak interactions, read-out: KD, kinetics toward antigen with 10 µM MTX
Description: The first 4 rounds of panning used biotinylated CD33 antigen captured on streptavidin or neutravidin coated 96-well plates. […] 1536 clones were randomly chosen from the 4th and 5th round of panning against the CD33 antigen and their binding specificity determined by phage ELISA. Clones that specifically bound to CD33 were sequenced and all unique clones were subjected to a phage competition ELISA to assess their relative affinities to CD33 and sensitivity to MTX by measuring their binding strengths in the presence or absence of 10 µM (micromolar) MTX (i.e. in 0 or 10 µM MTX).
All binding kinetics analysis was performed on label-free Biacore surface plasmon biosensors (Biacore T200™ from GE Life Sciences) at 37° C. in 10 mM Hepes pH 7.4, 150 mM NaCl, 0.05% Tween-20 (HBST+), with or without 10 µM MTX. The Biacore data were processed in Biacore T200 Evaluation Software, and the data were double-referenced (Myszka, 1999, J Mol Recognit 12(5):279-284) and fit globally to a simple Langmuir with mass transport model to determine the equilibrium dissociation constant, KD, from the ratio of the kinetic rate constants (KD = koff/kon). In some cases the binding of antigen was very low (or not detectable) in the presence of 10 µM MTX and as a result kinetic rate constants could not be accurately determined. In these cases, a KD (or KD limit) was estimated based on the binding response at the highest analyte concentration tested or based on the typical limit of detection for a Biacore T200.

| times greater affinity for CD33 in the presence of 10 µM MTX as compared to in 0 µM MTX (CD33) | koff, kinetics toward antigen with 0 µM MTX (CD33) | kon, kinetics toward antigen with 0 µM MTX (CD33) | koff, kinetics toward antigen with 10 µM MTX (CD33) | kon, kinetics toward antigen with 10 µM MTX (CD33) | Kd (CD33) | Molecule | affinity for CD33 in the presence of MTX as compared to absence (in words) (10 µM MTX vs 0 µM MTX) |
| --- | --- | --- | --- | --- | --- | --- | --- |
| about 10 times | 0.0026 s⁻¹ | 140000 M⁻¹ s⁻¹ | 0.0006 s⁻¹ | 390000 M⁻¹ s⁻¹ | – | P01_B02: anti-CD33 clone with increased affinity in presence of MTX; VH SEQ ID NO: 31, VL SEQ ID NO: 32 (antibody, V domains shown, Synthetic Antibody) VH: QVQLVESGGGLVQAGGSLRLSCAASRRSSRSWAMHWVRQAPGKGLEWVAVISYDGRLKYYADSVKGRFTISRDNAEYLVYLQMNSLRAEDTAVYYCAAADWYSGGGDALDIWGQGTLVTVSS VL: DIQMTQSPSSLSASVGDRVTITCRASQTIYNYLNWYQQKPGKAPKLLIYGASNLQSGVPSRFSGSGSGTDFTLTISSLQPEDFATYYCQQTYSSPTFGQGTKVEIK | increased affinity for CD33 in the presence of 10 µM MTX |
| – | 0.0061 s⁻¹ | 61000 M⁻¹ s⁻¹ | 0.062 s⁻¹ | 88000 M⁻¹ s⁻¹ | – | P02_D08: anti-CD33 clone with conditional affinity; VH SEQ ID NO: 13, VL SEQ ID NO: 14 (antibody, V domains shown, Synthtic Antibody; Synthetic Antibody) VH: QVQLVESGGGLVQAGGSLRLSCAASRRSSRSWAMHWVRQAPGKGLEWVAVISYDGRLKYYADSVKGRFTISRDNAEYLVYLQMNSLRAEDTAVYYCAAERGDGLDGNVGLDIWGQGTLVTVSS VL: DIQMTQSPSSLSASVGDRVTITCRASQSISKYLNWYQQKPGKAPKLLIYGASTLQSGVPSRFSGSGSGTDFTLTISSLQPEDFATYYCQQSYSSGTFGQGTKVEIK | – |
| – | 0.0045 s⁻¹ | 63000 M⁻¹ s⁻¹ | 0.051 s⁻¹ | 94000 M⁻¹ s⁻¹ | – | P08_C08: anti-CD33 clone with conditional affinity; VH SEQ ID NO: 27, VL SEQ ID NO: 28 (antibody, V domains shown, Synthetic Antibody) VH: QVQLVESGGGLVQAGGSLRLSCAASRRSSRSWAMHWVRQAPGKGLEWVAVISYDGRLKYYADSVKGRFTISRDNAEYLVYLQMNSLRAEDTAVYYCAAEGSGSTDGSGAIDVWGQGTLVTVSS VL: DIQMTQSPSSLSASVGDRVTITCRASQSIGSYLNWYQQKPGKAPKLLIYAASSLQSGVPSRFSGSGSGTDFTLTISSLQPEDFATYYCQQSYSSGSFGQGTKVEIK | – |
| – | 0.017 s⁻¹ | 110000 M⁻¹ s⁻¹ | – | – | – | P01_A09: anti-CD33 clone with conditional affinity; VH SEQ ID NO: 3, VL SEQ ID NO: 4; tested as scFv-Fc (antibody, V domains shown) VH: QVQLVESGGGLVQAGGSLRLSCAASRRSSRSWAMHWVRQAPGKGLEWVAVISYDGRLKYYADSVKGRFTISRDNAEYLVYLQMNSLRAEDTAVYYCAAERPTSDGSTGGMDVWGQGTLVTVSS VL: DIQMTQSPSSLSASVGDRVTITCRASQSISSYLNWYQQKPGKAPKLLIYGASTLQSGVPSRFSGSGSGTDFTLTISSLQPEDFATYYCQQSYSSGTFGQGTKVEIK | – |
| – | 0.02 s⁻¹ | 92000 M⁻¹ s⁻¹ | 0.025 s⁻¹ | 110000 M⁻¹ s⁻¹ | – | P02_C02: anti-CD33 reference clone, less than 2-fold MTX effect; VH SEQ ID NO: 11, VL SEQ ID NO: 12 (antibody, V domains shown, Synthetic Antibody) VH: QVQLVESGGGLVQAGGSLRLSCAASRRSSRSWAMHWVRQAPGKGLEWVAVISYDGRLKYYADSVKGRFTISRDNAEYLVYLQMNSLRAEDTAVYYCAAEGGMGLDPWGQGTLVTVSS VL: DIQMTQSPSSLSASVGDRVTITCRASQTISSYLNWYQQKPGKAPKLLIYAASNLHSGVPSRFSGSGSGTDFTLTISSLQPEDFATYYCQQSYSSGTFGQGTKVEIK | – |
| – | 0.044 s⁻¹ | 84000 M⁻¹ s⁻¹ | – | – | > 9.02 µM | P02_A10: anti-CD33 clone with conditional affinity; VH SEQ ID NO: 9, VL SEQ ID NO: 10 (antibody, V domains shown, Synthetic Antibody) VH: QVQLVESGGGLVQAGGSLRLSCAASRRSSRSWAMHWVRQAPGKGLEWVAVISYDGRLKYYADSVKGRFTISRDNAEYLVYLQMNSLRAEDTAVYYCAAESEWDTGGFDVWGQGTLVTVSS VL: DIQMTQSPSSLSASVGDRVTITCRASQSIGSYLNWYQQKPGKAPKLLIYSSSNLQSGVPSRFSGSGSGTDFTLTISSLQPEDFATYYCQQSYTSGTFGQGTKVEIK | – |
| – | 0.011 s⁻¹ | 120000 M⁻¹ s⁻¹ | 0.087 s⁻¹ | 75000 M⁻¹ s⁻¹ | – | P16_E06: anti-CD33 clone with conditional affinity; VH SEQ ID NO: 29, VL SEQ ID NO: 30 (antibody, V domains shown, Synthetic Antibody) VH: QVQLVESGGGLVQAGGSLRLSCAASRRSSRSWAMHWVRQAPGKGLEWVAVISYDGRLKYYADSVKGRFTISRDNAEYLVYLQMNSLRAEDTAVYYCAAEGGDYPGTSDGGLDIWGQGTLVTVSS VL: DIQMTQSPSSLSASVGDRVTITCRASQSISNYLNWYQQKPGKAPKLLIYGASSLQSGVPSRFSGSGSGTDFTLTISSLQPEDFATYYCQQSYSAGTFGQGTKVEIK | – |
| – | 0.0018 s⁻¹ | 160000 M⁻¹ s⁻¹ | 0.0089 s⁻¹ | 44000 M⁻¹ s⁻¹ | – | P04_C09: anti-CD33 clone with conditional affinity; VH SEQ ID NO: 23, VL SEQ ID NO: 24 (antibody, V domains shown, Synthetic Antibody) VH: QVQLVESGGGLVQAGGSLRLSCAASRRSSRSWAMHWVRQAPGKGLEWVAVISYDGRLKYYADSVKGRFTISRDNAEYLVYLQMNSLRAEDTAVYYCAAEANESDSGGIDVWGQGTLVTVSS VL: DIQMTQSPSSLSASVGDRVTITCRASQTIGGYLNWYQQKPGKAPKLLIYAASSLQSGVPSRFSGSGSGTDFTLTISSLQPEDFATYYCQQGYSSGAFGQGTKVEIK | – |
| – | 0.0021 s⁻¹ | 83000 M⁻¹ s⁻¹ | 0.013 s⁻¹ | 45000 M⁻¹ s⁻¹ | – | P04_C05: anti-CD33 clone with conditional affinity; VH SEQ ID NO: 41, VL SEQ ID NO: 42 (antibody, V domains shown, Synthetic Antibody) VH: QVQLVESGGGLVQAGGSLRLSCAASRRSSRSWAMHWVRQAPGKGLEWVAVISYDGRLKYYADSVKGRFTISRDNAEYLVYLQMNSLRAEDTAVYYCAAGLPWTDYWGQGTLVTVSS VL: QSVLTQPPSASGTPGQRVTISCSGSNSNIGSNYVSWYQQLPGTAPKLLIYSNNQRPSGVPDRFSGSKSGTSASLAISGLRSEDEADYYCAAWDDRLSVVFGTGTKLTVL | – |
| – | 0.01 s⁻¹ | 47000 M⁻¹ s⁻¹ | – | – | > 0.726 µM | P02_E08: anti-CD33 clone with conditional affinity; VH SEQ ID NO: 37, VL SEQ ID NO: 38; also as scFv in CAR (antibody, V domains shown, Synthetic Antibody, also as scFv in CAR) VH: QVQLVESGGGLVQAGGSLRLSCAASRRSSRSWAMHWVRQAPGKGLEWVAVISYDGRLKYYADSVKGRFTISRDNAEYLVYLQMNSLRAEDTAVYYCAASDYDGGGLFDLWGQGTLVTVSS VL: QSVLTQPPSASGTPGQRVTISCSGSNSNIGDNYVHWYQQLPGTAPKLLIYMNNQRPSGVPDRFSGSKSGTSASLAISGLRSEDEADYYCATWDDSLSGVVFGTGTKLTVL | – |
| – | 0.026 s⁻¹ | 72000 M⁻¹ s⁻¹ | – | – | > 15.7 µM | P03_H04: anti-CD33 clone with conditional affinity; VH SEQ ID NO: 39, VL SEQ ID NO: 40; also as scFv in CAR (antibody, V domains shown, Synthetic Antibody, also as scFv in CAR) VH: QVQLVESGGGLVQAGGSLRLSCAASRRSSRSWAMHWVRQAPGKGLEWVAVISYDGRLKYYADSVKGRFTISRDNAEYLVYLQMNSLRAEDTAVYYCAADPHDGYGGGPGFDYWGQGTLVTVSS VL: QSVLTQPPSASGTPGQRVTISCSGSSSNIGSNYVYWYQQLPGTAPKLLIYRSNQRPSGVPDRFSGSKSGTSASLAISGLRSEDEADYYCAAWDDTLSAVVFGTGTKLTVL | – |
